Measured values: paper PMC7038949, “FRET-Based Aptasensor for the Selective and Sensitive Detection of Lysozyme”

Biological target: lysozyme (chicken (egg white), UniProt P00698 19-147)
Assay: single-molecule FRET (aptamer displacement); H1 helper strand 1 uM, 10 mM Mg2+; detection limit 30 nM, dynamic range to ~2 uM (not a Kd); 1x TAE-Mg: 40 mM Tris, 20 mM acetic acid, 1 mM EDTA, 10 mM Mg2+, pH 7.4; 1 uM H1 in imaging solution; temperature not stated
Settings: protein: commercial; label: 3' Cy3 on Cy3 strand; 5' Cy5 on Cy5 strand; partially double-stranded multi-strand assembly; 15 nt of aptamer strand (6 extension + 9 aptamer) paired with B1; lysozyme displaces the aptamer strand

Sequence of lysozyme (P00698 19-147): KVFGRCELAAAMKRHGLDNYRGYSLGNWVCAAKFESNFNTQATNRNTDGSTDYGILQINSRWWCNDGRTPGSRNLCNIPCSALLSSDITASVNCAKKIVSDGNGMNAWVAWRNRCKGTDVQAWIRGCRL

B1: lysozyme aptasensor (aptamer annealed to B1, Cy5, top and Cy3 strands) (mixed)
DNA 1: ACTGTCATCAGGGCTAAAGAGTGCAGAGTTACTTAG
DNA 2: AGCCCTGATGACAGTAATATAATTCTATA
DNA 3: TATAGAATTATATTATATTACGAGTAGTGAGTTCCA
DNA 4: ATCAGAAGCTCTC
DNA 5: TGGAACTCACTACTCGATTAGTGTATGACCTCTATATGAGAGCTTCTGAT
modifications: 5' biotin-TEG on Cy3 strand
B1: binds.
